Data as given in IntAct's records for PubMed 17157260.

B1: Protein YNG1 (Saccharomyces cerevisiae), Q08465 (parent)
chain: MEHLANENSDSDIRYSFLSTLDHLPCELIRSLRLMQTIDLFKNEEDEPGMERACRDLLLVATYINDLVDDQIHFLKQHKKELEIQKSVTKNFNSSLENIKSKLTLEEPGAYKEPKLLLKINLKKAKSRERKESITSPTIGINQGDVTEGNNNQEEVYCFCRNVSYGPMVACDNPACPFEWFHYGCVGLKQAPKGKWYCSKDCKEIANQRSKSKRQKRRK

Variants of: B1
Conditions: with h3_yeast HHT1, P61830

effect of a mutation on the interaction | Variant
decreasing interaction | W180E
